According to the supplement of paper PMC10126150:
± gives the standard deviation of the averaged measurements.

tested on: ATP; test: switch fluorescence ratio, 500 uM ATP over buffer (Cy3 cluster intensity, sum of 5 cycles each) (fold (ratio)); higher = stronger signal-on switching upon ATP binding; sequences stand for … in TCGTCGGCAGCGTCAGATGTGTATAAGAGACAGTTTTTTTTTTTTTTTTTTTTTTTTT…TC; conditions: aptamer strand: ATP DNA aptamer (quencher-CACCTGGGGGAGTATTGCGGAGGAAGG + anchor), 100 nM annealed; ATP concentration: 500 uM
In short: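 Clusters carrying Cy3-labelled switching strands on a modified Illumina MiSeq flow-cell were annealed to 100 nM quencher-labelled ATP aptamer and imaged in selection buffer. They were imaged again after 15 min with 500 uM ATP at 22 °C, over five buffer/ATP cycles with NaOH stripping and re-annealing in between. For each cluster, the fluorescence ratio is the summed Cy3 intensity of the target cycles divided by that of the buffer cycles, averaged per switch-domain sequence. Clusters outside 100-1000 RFU were left out.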
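Note: ATP exposure 15 min at 22 °C before imaging.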

Sequence | switch fluorescence ratio
TGTTTGTAT | 0.9851 ± 0.0015
TGTTTGTCTA | 1.01 ± 0.011
TGTTTGTTGG | 0.9887 ± 0.009
TGTTTGTTTC | 0.973 ± 0.033
TGTTTTAGAA | 1.01 ± 0.012
TGTTTTAGGC | 0.977 ± 0.02
TGTTTTAGGG | 0.993 ± 0.035
TGTTTTAGTT | 1.01 ± 0.045
TGTTTTATGG | 0.9871 ± 0.008
TGTTTTATGT | 0.989 ± 0.032
TGTTTTCGGT | 0.9899 ± 0.0097
TGTTTTGAGT | 1.01 ± 0.013
TGTTTTGATG | 1.04 ± 0.078
TGTTTTGGTG | 1.01 ± 0.027
TGTTTTTAGT | 0.9945 ± 0.0039
TGTTTTTGTT | 1.01 ± 0.058
TGTTTTTTAT | 1.02 ± 0.047
TGTTTTTTTA | 0.979 ± 0.024
TGTTTTTTTC | 1.06 ± 0.04
TGTTTTTTTT | 0.999 ± 0.029
TTAAAAAGTA | 1.03 ± 0.02
TTAAAACCTT | 1.56 ± 0.46
TTAAAACTCA | 1.04 ± 0.018
TTAAAAGTAT | 1.01 ± 0.043
TTAAAATAGA | 1.07 ± 0.1

Sequence | switch fluorescence ratio
TTAAAATTAA | 0.975 ± 0.021
TTAAACCCAC | 1.35 ± 0.023
TTAAACGTAG | 1 ± 0.045
TTAAACTCGG | 0.998 ± 0.053
TTAAAGAGCT | 1.014 ± 0.0028
TTAAAGGGGG | 1.02 ± 0.086
TTAAAGGTAA | 1.018 ± 0.0094
TTAAAGGTAT | 1.11 ± 0.063
TTAAAGTCCC | 0.993 ± 0.033
TTAAAGTCGG | 1 ± 0.024
TTAAAGTGAA | 0.988 ± 0.024
TTAAATAAAA | 0.999 ± 0.028
TTAAATCATT | 1.014 ± 0.0099
TTAAATCGTG | 1.01 ± 0.054
TTAAATCGTT | 1.036 ± 0.0076
TTAAATGGGG | 0.978 ± 0.011
TTAAATTAAT | 0.976 ± 0.047
TTAAATTTGC | 1.03 ± 0.011
TTAACACGGA | 1.01 ± 0.019
TTAACAGGGG | 1.33 ± 0.26
TTAACCCTTT | 1.02 ± 0.021
TTAACCGGGT | 1.01 ± 0.057
TTAACGTAGA | 1.04 ± 0.015
TTAACTGGTA | 0.9904 ± 0.0016
TTAACTGTTT | 0.992 ± 0.019

Sequence | switch fluorescence ratio
TTAACTTGGG | 0.976 ± 0.013
TTAACTTTCA | 1.04 ± 0.029
TTAAGAAATT | 1.01 ± 0.048
TTAAGAATGC | 1.07 ± 0.12
TTAAGAGGTA | 1.002 ± 0.0039
TTAAGATCAT | 0.969 ± 0.041
TTAAGGAATT | 0.999 ± 0.036
TTAAGGACGT | 0.984 ± 0.016
TTAAGGAGCG | 1.04 ± 0.016
TTAAGGCAA | 1.125 ± 0.0087
TTAAGGCGTT | 0.9791 ± 0.0071
TTAAGGCTAT | 1.009 ± 0.0065
TTAAGGGAAT | 1 ± 0.011
TTAAGGGACC | 1.022 ± 0.0089
TTAAGGGACG | 0.996 ± 0.11
TTAAGGGATC | 0.957 ± 0.038
TTAAGGGATG | 1.03 ± 0.043
TTAAGGGATT | 0.993 ± 0.032
TTAAGGGCAA | 1.06 ± 0.013
TTAAGGGGCT | 1.01 ± 0.018
TTAAGGGTCC | 0.984 ± 0.061
TTAAGGTTGC | 0.989 ± 0.019
TTAAGTAAGG | 1.03 ± 0.016
TTAAGTACGG | 1.3 ± 0.016
TTAAGTAGGA | 1 ± 0.017

Sequence | switch fluorescence ratio
TTAAGTAGTA | 0.9679 ± 0.0025
TTAAGTCAGT | 0.9717 ± 0.005
TTAAGTGAAT | 0.979 ± 0.066
TTAAGTGAC | 1.06 ± 0.028
TTAAGTGCTC | 0.983 ± 0.031
TTAAGTGGGG | 1.02 ± 0.011
TTAAGTGGTG | 1.01 ± 0.017
TTAAGTGTAA | 0.9697 ± 0.0036
TTAAGTTGAT | 0.988 ± 0.033
TTAAGTTTAC | 1.01 ± 0.038
TTAATAAAAA | 0.985 ± 0.028
TTAATAAGGG | 1 ± 0.024
TTAATACTGT | 1.03 ± 0.016
TTAATAGTGG | 1.03 ± 0.073
TTAATAGTGT | 1 ± 0.013
TTAATATTGT | 1.029 ± 0.0062
TTAATCCCCC | 1.04 ± 0.042
TTAATCCCGT | 1.04 ± 0.048
TTAATCGTGC | 0.98 ± 0.043
TTAATCTGAG | 1.02 ± 0.012
TTAATGCTAT | 0.9836 ± 0.0043
TTAATGGGGC | 1.01 ± 0.061
TTAATGGGGT | 1 ± 0.039
TTAATGGTTA | 1.02 ± 0.029
TTAATGTTGT | 1 ± 0.035
